Laboratory results: patent US20250281613A1 (CELLECTIS S A, published 2025)

Biological target: T1, CS1 recombinant protein (SEQ ID NO: 97), plate-bound
T1 chain: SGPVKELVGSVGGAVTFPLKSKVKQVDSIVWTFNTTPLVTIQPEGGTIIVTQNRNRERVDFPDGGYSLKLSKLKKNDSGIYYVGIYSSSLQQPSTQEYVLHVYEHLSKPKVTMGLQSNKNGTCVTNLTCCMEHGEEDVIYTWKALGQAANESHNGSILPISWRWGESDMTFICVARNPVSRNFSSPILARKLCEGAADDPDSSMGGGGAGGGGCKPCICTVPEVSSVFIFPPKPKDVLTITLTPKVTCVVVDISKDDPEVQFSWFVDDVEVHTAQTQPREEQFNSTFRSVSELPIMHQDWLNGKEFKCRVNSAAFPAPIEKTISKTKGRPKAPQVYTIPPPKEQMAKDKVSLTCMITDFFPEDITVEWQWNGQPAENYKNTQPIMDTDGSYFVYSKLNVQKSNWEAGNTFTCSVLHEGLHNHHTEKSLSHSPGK
Assay: cell-based or functional assay

B1: CS1-specific second generation CAR (SEQ ID NO: 96) on T cells (other)
chain: QVQLQQPGAELVRPGASVKLSCKASGYSFTTYWMNWVKQRPGQGLEWIGMIHPSDSETRLNQKFKDKATLTVDKSSSTAYMQLSSPTSEDSAVYYCARSTMIATRAMDYWGQGTSVTVSSGGGGSGGGGSGGGGSDIVMTQSQKSMSTSVGDRVSITCKASQDVITGVAWYQQKPGQSPKLLIYSASYRYTGVPDRFTGSGSGTDFTFTISNVQAEDLAVYYCQQHYSTPLTFGAGTKLELKTTTPAPRPPTPAPTIASQPLSLRPEACRPAAGGAVHTRGLDFACDIYIWAPLAGTCGVLLLSLVITLYCKRGRKKLLYIFKQPFMRPVQTTQEEDGCSCRFPEEEEGGCELRVKFSRSADAPAYQQGQNQLYNELNLGRREEYDVLDKRRGRDPEMGGKPRRKNPQEGLYNELQKDKMAEAYSEIGMKGERRRGKGHDGLYQGLSTATKDTYDALHMQALPPR
  RNA-seq of CAR+ T cells 24 h after activation on plate-bound CS1 protein versus unactivated cells: genes induced (fold change greater than 5): 159 genes
